Data taken from paper PMC4737149, “The autoinhibitory CARD2-Hel2i Interface of RIG-I governs RNA selection”.

Tests used:
RIG-I full length (wt) [1] = molecular target: T1, RIG-I full length (wt) (human, UniProt O95786 1-925); test: ATPase titration (Kd,app); ATP, 37 C; Buffer A (composition not in the material; 150 mM NaCl stated for some supplementary assays); anisotropy at 15 C with 1-2 nM (blunt) or 40 nM (non-blunt) labell; conditions: protein: recombinant, tags: N-terminal SUMO fusion construct, His (Ni-NTA)
T1 sequence: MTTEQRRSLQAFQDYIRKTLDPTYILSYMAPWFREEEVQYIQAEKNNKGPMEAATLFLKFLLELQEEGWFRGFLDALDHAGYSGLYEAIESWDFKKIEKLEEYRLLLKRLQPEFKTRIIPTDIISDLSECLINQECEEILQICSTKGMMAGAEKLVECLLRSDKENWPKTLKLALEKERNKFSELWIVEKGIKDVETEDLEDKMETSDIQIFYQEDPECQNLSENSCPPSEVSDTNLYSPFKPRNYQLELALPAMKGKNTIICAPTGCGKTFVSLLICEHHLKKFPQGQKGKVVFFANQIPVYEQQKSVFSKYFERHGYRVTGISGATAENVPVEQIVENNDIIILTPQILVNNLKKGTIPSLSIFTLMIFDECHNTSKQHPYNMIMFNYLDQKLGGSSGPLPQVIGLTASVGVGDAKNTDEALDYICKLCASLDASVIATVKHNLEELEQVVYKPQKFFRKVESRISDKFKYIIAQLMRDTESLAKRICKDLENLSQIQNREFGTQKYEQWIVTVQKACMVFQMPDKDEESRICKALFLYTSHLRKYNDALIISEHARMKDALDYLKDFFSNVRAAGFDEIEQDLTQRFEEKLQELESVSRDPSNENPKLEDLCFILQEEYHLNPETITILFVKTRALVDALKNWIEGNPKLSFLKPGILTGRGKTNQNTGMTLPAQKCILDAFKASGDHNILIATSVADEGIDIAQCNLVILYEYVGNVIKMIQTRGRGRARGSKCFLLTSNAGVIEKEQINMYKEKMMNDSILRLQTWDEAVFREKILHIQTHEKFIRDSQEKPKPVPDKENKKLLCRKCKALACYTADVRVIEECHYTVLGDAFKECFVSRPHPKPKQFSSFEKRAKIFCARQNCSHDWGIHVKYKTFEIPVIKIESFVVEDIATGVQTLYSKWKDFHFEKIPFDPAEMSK

[2] = molecular target: T2, Helicase-RD (RIG-I lacking CARDs) (human, UniProt O95786 232-925); test: ATPase titration (Kd,app); ATP, 15 C; Buffer A (composition not in the material; 150 mM NaCl stated for some supplementary assays); anisotropy at 15 C with 1-2 nM (blunt) or 40 nM (non-blunt) labell; conditions: protein: recombinant, tags: N-terminal SUMO fusion construct, His (Ni-NTA)
T2 sequence: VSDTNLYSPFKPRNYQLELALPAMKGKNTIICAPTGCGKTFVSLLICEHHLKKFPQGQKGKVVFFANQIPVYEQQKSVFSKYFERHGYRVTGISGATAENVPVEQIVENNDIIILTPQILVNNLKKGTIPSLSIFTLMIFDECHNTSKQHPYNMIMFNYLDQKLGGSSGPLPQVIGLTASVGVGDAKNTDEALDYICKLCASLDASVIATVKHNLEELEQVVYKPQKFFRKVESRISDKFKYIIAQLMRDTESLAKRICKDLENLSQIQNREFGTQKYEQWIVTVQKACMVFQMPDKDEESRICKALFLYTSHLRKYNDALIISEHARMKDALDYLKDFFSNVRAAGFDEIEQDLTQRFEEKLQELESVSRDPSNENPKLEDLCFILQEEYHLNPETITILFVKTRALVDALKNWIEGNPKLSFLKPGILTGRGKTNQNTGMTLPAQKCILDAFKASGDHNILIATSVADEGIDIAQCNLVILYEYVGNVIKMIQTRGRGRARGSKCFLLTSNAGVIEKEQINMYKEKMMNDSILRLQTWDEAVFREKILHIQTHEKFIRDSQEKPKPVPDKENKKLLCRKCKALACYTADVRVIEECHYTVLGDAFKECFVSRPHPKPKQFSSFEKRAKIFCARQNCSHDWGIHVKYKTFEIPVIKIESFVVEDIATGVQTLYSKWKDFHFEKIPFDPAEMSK

[3] = molecular target: T3, RIG-I R109A/L110A (CARD2-Hel2i interface mutant) (human, UniProt O95786 1-925, R109A;L110A); test: as above; conditions: protein: recombinant, tags: N-terminal SUMO fusion construct, His (Ni-NTA)
T3 sequence: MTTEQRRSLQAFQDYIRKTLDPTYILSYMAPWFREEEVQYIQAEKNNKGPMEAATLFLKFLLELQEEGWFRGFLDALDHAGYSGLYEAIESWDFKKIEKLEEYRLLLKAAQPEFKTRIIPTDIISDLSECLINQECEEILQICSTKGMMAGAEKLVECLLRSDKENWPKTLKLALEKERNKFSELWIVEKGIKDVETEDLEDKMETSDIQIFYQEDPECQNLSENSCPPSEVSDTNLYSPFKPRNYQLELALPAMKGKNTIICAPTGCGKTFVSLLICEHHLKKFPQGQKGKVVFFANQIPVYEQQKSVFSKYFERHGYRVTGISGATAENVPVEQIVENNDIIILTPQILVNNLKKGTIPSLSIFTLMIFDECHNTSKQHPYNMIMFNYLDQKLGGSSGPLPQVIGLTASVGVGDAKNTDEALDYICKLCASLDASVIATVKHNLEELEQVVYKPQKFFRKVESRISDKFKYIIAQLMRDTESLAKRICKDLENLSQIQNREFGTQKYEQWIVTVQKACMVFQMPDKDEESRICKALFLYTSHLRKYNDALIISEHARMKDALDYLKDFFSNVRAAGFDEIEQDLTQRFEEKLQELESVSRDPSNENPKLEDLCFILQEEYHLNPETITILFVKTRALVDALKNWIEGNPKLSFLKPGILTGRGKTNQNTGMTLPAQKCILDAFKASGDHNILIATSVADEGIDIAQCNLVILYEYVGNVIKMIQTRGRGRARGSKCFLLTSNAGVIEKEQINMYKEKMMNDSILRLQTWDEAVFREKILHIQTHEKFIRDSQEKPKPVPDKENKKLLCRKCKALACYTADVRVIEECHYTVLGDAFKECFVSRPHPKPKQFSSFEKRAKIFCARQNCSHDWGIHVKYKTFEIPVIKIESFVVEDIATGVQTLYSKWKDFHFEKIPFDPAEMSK

RIG-I full length (wt) [4] = molecular target: T1, RIG-I full length (wt); test: as above; conditions: protein: recombinant; tags: N-terminal SUMO fusion construct, His (Ni-NTA); label: fluorescein on strand 2 in fluorescence assays; 3' overhangs 2 nt at both ends, 8 bp
[5] = molecular target: T4, RIG-I C-terminal repressor domain (RD) (human, UniProt O95786 801-925); test: fluorescence anisotropy; no ATP, 15 C; Buffer A (composition not in the material; 150 mM NaCl stated for some supplementary assays); anisotropy at 15 C with 1-2 nM (blunt) or 40 nM (non-blunt) labell; conditions: protein: recombinant; tags: N-terminal SUMO fusion construct, His (Ni-NTA); label: fluorescein on strand 2 in fluorescence assays; 3' overhangs 2 nt at both ends, 8 bp
T4 sequence: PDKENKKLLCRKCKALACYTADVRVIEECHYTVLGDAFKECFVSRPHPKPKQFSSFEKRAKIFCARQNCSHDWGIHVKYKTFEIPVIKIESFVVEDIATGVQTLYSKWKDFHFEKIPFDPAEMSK

RIG-I full length (wt) [6] = molecular target: T1, RIG-I full length (wt); test: as above; conditions: protein: recombinant, tags: N-terminal SUMO fusion construct, His (Ni-NTA)
RIG-I full length (wt) [7] = molecular target: T1, RIG-I full length (wt); test: ATPase titration (Kd,app); ATP, 150 mM NaCl, 37 C; Buffer A (composition not in the material; 150 mM NaCl stated for some supplementary assays); anisotropy at 15 C with 1-2 nM (blunt) or 40 nM (non-blunt) labell; conditions: protein: recombinant, tags: N-terminal SUMO fusion construct, His (Ni-NTA)
[8] = molecular target: T2, Helicase-RD (RIG-I lacking CARDs); test: ATPase titration (Kd,app); ATP, 37 C; Buffer A (composition not in the material; 150 mM NaCl stated for some supplementary assays); anisotropy at 15 C with 1-2 nM (blunt) or 40 nM (non-blunt) labell; conditions: protein: recombinant; tags: N-terminal SUMO fusion construct, His (Ni-NTA); single strand
RIG-I full length (wt) [9] = molecular target: T1, RIG-I full length (wt); test: ATPase titration (Kd,app); ATP, 15 C; same as Kd without ATP; Buffer A (composition not in the material; 150 mM NaCl stated for some supplementary assays); anisotropy at 15 C with 1-2 nM (blunt) or 40 nM (non-blunt) labell; conditions: protein: recombinant, tags: N-terminal SUMO fusion construct, His (Ni-NTA), none in ATPase assays
[10] = molecular target: T2, Helicase-RD (RIG-I lacking CARDs); test: stopped-flow kinetics (koff/kon); 15 C; koff 1.5e-3 s-1, kon 6e8 M-1 s-1; Buffer A (composition not in the material; 150 mM NaCl stated for some supplementary assays); anisotropy at 15 C with 1-2 nM (blunt) or 40 nM (non-blunt) labell; conditions: protein: recombinant, tags: N-terminal SUMO fusion construct, His (Ni-NTA), none in ATPase assays
RIG-I full length (wt) [11] = molecular target: T1, RIG-I full length (wt); test: ATPase titration (Kd,app); ATP, 15 C; Buffer A (composition not in the material; 150 mM NaCl stated for some supplementary assays); anisotropy at 15 C with 1-2 nM (blunt) or 40 nM (non-blunt) labell; conditions: protein: recombinant, tags: N-terminal SUMO fusion construct, His (Ni-NTA), label: fluorescein on strand 2 in fluorescence assays (5' for anisotropy, 3' for intensity), none in ATPase assays
[12] = label: 5' fluorescein on strand 2 in fluorescence assays, 5' overhangs 2 nt at both ends, 8 bp
[13] = label: fluorescein on strand 2 in fluorescence assays, 3' overhangs 2 nt at both ends, 8 bp
[14] = label: fluorescein on strand 2 in fluorescence assays (5' for anisotropy, 3' for intensity), none in ATPase assays, blunt
[15] = hairpin with 5-nt U overhangs at both 5' and 3' ends

B1: 5'ppp HP (structured_RNA)
RNA: GAAUAUAAUAGUGAUAUUAUAUUC
modifications: 5'-triphosphate
Kd (RIG-I full length (wt) [1]; hairpin, blunt): 6 ± 0.7 nM

B2: 5'OH HP (structured_RNA)
RNA: GAAUAUAAUAGUGAUAUUAUAUUC
Kd (RIG-I full length (wt) [1]; hairpin, blunt): 39 ± 4 nM

B3: 5'ppp 5'ovg RNA (dsRNA)
RNA 1: CGUGAGACAU
RNA 2: UCAUGUCUCA
modifications: 5'-triphosphate on strand 1
Kd [2, 12]: ~0.1 nM
Kd [3, 12]: 43 ± 5 nM

B4: 5'OH 3'ovg RNA (dsRNA)
RNA 1: CGUGAGACAU
RNA 2: GUCUCACGUA
Kd [2, 13]: ~1.5 nM
Kd [3, 13]: 121 ± 14 nM

B5: 5'ppp 3'ovg RNA (dsRNA)
RNA 1: CGUGAGACAU
RNA 2: GUCUCACGUA
modifications: 5'-triphosphate on strand 1
binding signal (RIG-I full length (wt) [4]): ~16 fold Kd,app/Kd without ATP
Kd [2, 13]: ~0.1 nM
Kd [3, 13]: 16 ± 4 nM
Kd [5]: 165 ± 2 nM
Kd (RIG-I full length (wt) [6]; [13]): 3 ± 0.4 nM

B6: 5'OH 5'ovg RNA (dsRNA)
RNA 1: CGUGAGACAU
RNA 2: UCAUGUCUCA
Kd [2, 12]: ~1.5 nM
Kd [3, 12]: 64 ± 7 nM
Kd (RIG-I full length (wt) [6]; [12]): ~450 nM

B7: 5'ppp RNA 3'F (dsRNA)
RNA 1: CGUGAGACAU
RNA 2: AUGUCUCACG
modifications: 5'-triphosphate on strand 1
Kd (RIG-I full length (wt) [7]; label: 3' fluorescein on strand 2): 73 ± 18 nM

B8: 5'ppp ss10 RNA (ssRNA)
RNA: CGUGAGACAU
modifications: 5'-triphosphate
Kd [8]: 500 ± 100 nM

B9: 5'ppp RNA (10-bp blunt) (dsRNA)
RNA 1: CGUGAGACAU
RNA 2: AUGUCUCACG
modifications: 5'-triphosphate on strand 1
binding signal (RIG-I full length (wt) [9]): 1 fold Kd,app/Kd without ATP
Kd ([3]; none in ATPase assays, blunt): 0.1 ± 0.1 nM
Kd [10]: 0.0025 nM
Kd (RIG-I full length (wt) [7]; none in ATPase assays): 90 ± 29 nM
Kd (RIG-I full length (wt) [6]; none in ATPase assays, blunt): 0.4 ± 0.2 nM

B10: 5'OH RNA (10-bp blunt) (dsRNA)
RNA 1: CGUGAGACAU
RNA 2: AUGUCUCACG
Kd [2, 14]: 0.07 nM
Kd [3, 14]: 0.2 ± 0.3 nM
binding signal (RIG-I full length (wt) [11]): ~2.5 fold Kd,app/Kd without ATP
Kd (RIG-I full length (wt) [6]; [14]): 6 ± 0.4 nM

B11: dsRNA stem (hairpin with two overhangs) (structured_RNA)
RNA: UUUUUGAAUAUAAUAGUGAUAUUAUAUUCUUUUU
Kd (RIG-I full length (wt) [1]; [15]): 629 ± 165 nM
Kd [2, 15]: 0.6 ± 0.4 nM
Kd [3, 15]: 53 ± 9 nM
Kd (RIG-I full length (wt) [6]; [15]): ~450 nM

B12: 5'OH ss10 RNA (ssRNA)
RNA: CGUGAGACAU
Kd [8]: 1600 ± 500 nM
